# In US20240182526A1 (UNIVERSITY OF SOUTHERN CALIFORNIA, published 2024):
# Biological target: T1, SRC, endogenous in mouse splenocytes (mouse, UniProt P05480 2-535)
# T1 construct: Detected as pSRC (pY416-SRC antibody) in gp130 co-immunoprecipitates; also called pSRC; c-SRC
# Test: co-immunoprecipitation, F814 mouse splenocytes with or without OSM
binder,measurement,value
"gp130 F814 variant of the CRISPR/Cas9 F814 mouse (SEQ ID NO:27 with F812 substitution) (receptor, Endogenous protein in lysates of F814 mouse splenocytes; also called Y814 mutant; gp130 Y814-deficient) QLLEPCGYIYPEFPVVQRGSNFTAICVLKEACLQHYYVNASYIVWKTNHAAVPREQVTVINRTTSSVTFTDVVLPSVQLTCNILSFGQIEQNVYGVTMLSGFPPDKPTNLTCIVNEGKNMLCQWDPGRETYLETNYTLKSEWATEKFPDCQSKHGTSCMVSYMPTYYVNIEVWVEAENALGKVSSESINFDPVDKVKPTPPYNLSVTNSEELSSILKLSWVSSGLGGLLDLKSDIQYRTKDASTWIQVPLEDTMSPRTSFTVQDLKPFTEYVFRIRSIKDSGKGYWSDWSEEASGTTYEDRPSRPPSFWYKTNPSHGQEYRSVRLIWKALPLSEANGKILDYEVILTQSKSVSQTYTVTGTELTVNLTNDRYVASLAARNKVGKSAAAVLTIPSPHVTAAYSVVNLKAFPKDNLLWVEWTPPPKPVSKYILEWCVLSENAPCVEDWQQEDATVNRTHLRGRLLESKCYQITVTPVFATGPGGSESLKAYLKQAAPARGPTVRTKKVGKNEAVLAWDQIPVDDQNGFIRNYSISYRTSVGKEMVVHVDSSHTEYTLSSLSSDTLYMVRMAAYTDEGGKDGPEFTFTTPKFAQGEIEAIVVPVCLAFLLTTLLGVLFCFNKRDLIKKHIWPNVPDPSKSHIAQWSPHTPPRHNFNSKDQMYSDGNFTDVSVVEIEANNKKPCPDDLKSVDLFKKEKVSTEGHSSGIGGSSCMSSSRPSISSNEENESAQSTASTVQYSTVVHSGYRHQVPSVQVFSRSESTQPLLDSEERPEDLQLVDSVDGGDEILPRQPFFKQNCSQPEACPEISHFERSNQVLSGNEEDFVRLKQQQVSDHISQPYGSEQRRLFQEGSTADALGTGADGQMERFESVGMETTIDEEIPKSYLPQTVRQGGYMPQ",binding result,no binding
